Measured values as given in paper PMC8660799, “Cryo-EM reveals unique structural features of the FhuCDB Escherichia coli ferrichrome importer” (Communications Biology, 2021).

Legend:
Assay in all cases: MST; 40 nM FhuCB (wild type or FhuB mutant) in detergent, His-tag labelled with red-tris-NTA 2nd generation dye; serial dilution of 1.6 μM FhuD with substrate ferrichrome; with ATP-Mg; Monolith NT.115pico, 20% LED power, medium MST power
Conditions in all cases: both partners purified
FhuCB with FhuB S57A = molecular target: T1, FhuCB with FhuB S57A (Escherichia coli, UniProt P07821 1-265; P06972 1-660, S57A, red-tris-NTA 2nd generation dye on the His-tag)
T1 construct: FhuC, ATPase subunit, Escherichia coli; as in Dm2; FhuB, membrane subunit, Escherichia coli, 660 residues; Mutant made on the FhuCB-pET15b construct by direct mutagenesis; source: E. coli BL21(DE3) C43, purified (TALON, Superose 6 gel filtration) in LMNG; not shown: His-tag, N-terminal, kept; copies: 2 + 1
T1 sequence (looked up) 1: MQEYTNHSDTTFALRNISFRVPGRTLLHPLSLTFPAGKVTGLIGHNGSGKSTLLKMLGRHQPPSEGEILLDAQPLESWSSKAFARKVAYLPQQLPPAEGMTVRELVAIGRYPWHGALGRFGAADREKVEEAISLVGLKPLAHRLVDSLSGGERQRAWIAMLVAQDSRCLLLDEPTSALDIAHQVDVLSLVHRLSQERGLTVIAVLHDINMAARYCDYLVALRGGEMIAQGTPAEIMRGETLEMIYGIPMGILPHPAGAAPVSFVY
T1 sequence (looked up) 2: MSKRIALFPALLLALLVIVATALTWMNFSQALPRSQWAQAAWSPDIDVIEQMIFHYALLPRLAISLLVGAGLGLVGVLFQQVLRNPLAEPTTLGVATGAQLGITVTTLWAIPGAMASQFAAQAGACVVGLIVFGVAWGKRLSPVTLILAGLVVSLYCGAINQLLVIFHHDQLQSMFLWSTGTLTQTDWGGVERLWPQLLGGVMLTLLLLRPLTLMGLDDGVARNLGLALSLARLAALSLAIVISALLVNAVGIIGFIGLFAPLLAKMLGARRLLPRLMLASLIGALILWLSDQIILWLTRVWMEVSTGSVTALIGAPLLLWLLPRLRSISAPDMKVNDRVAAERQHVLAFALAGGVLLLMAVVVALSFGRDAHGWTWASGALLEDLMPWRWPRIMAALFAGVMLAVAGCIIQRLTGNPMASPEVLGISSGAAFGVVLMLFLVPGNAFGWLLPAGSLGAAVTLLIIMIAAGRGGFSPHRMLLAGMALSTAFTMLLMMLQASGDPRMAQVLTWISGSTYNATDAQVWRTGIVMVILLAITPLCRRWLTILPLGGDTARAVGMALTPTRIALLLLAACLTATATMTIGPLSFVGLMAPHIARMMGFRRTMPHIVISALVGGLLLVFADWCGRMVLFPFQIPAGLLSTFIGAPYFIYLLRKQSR

FhuCB with FhuB Q636A = molecular target: T2, FhuCB with FhuB Q636A (Escherichia coli, UniProt P07821 1-265; P06972 1-660, Q636A, red-tris-NTA 2nd generation dye on the His-tag)
T2 construct: FhuC, ATPase subunit, Escherichia coli; as in Dm2; FhuB, membrane subunit, Escherichia coli, 660 residues; Mutant made on the FhuCB-pET15b construct by direct mutagenesis; source: E. coli BL21(DE3) C43, purified (TALON, Superose 6 gel filtration) in LMNG; not shown: His-tag, N-terminal, kept; copies: 2 + 1
T2 sequence (looked up) 1: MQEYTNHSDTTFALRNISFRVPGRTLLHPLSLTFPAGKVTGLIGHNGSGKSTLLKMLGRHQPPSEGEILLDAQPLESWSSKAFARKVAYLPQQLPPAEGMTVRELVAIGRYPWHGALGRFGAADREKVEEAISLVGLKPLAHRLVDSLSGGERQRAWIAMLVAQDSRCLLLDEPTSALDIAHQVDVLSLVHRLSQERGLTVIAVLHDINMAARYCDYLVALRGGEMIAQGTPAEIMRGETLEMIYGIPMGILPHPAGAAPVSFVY
T2 sequence (looked up) 2: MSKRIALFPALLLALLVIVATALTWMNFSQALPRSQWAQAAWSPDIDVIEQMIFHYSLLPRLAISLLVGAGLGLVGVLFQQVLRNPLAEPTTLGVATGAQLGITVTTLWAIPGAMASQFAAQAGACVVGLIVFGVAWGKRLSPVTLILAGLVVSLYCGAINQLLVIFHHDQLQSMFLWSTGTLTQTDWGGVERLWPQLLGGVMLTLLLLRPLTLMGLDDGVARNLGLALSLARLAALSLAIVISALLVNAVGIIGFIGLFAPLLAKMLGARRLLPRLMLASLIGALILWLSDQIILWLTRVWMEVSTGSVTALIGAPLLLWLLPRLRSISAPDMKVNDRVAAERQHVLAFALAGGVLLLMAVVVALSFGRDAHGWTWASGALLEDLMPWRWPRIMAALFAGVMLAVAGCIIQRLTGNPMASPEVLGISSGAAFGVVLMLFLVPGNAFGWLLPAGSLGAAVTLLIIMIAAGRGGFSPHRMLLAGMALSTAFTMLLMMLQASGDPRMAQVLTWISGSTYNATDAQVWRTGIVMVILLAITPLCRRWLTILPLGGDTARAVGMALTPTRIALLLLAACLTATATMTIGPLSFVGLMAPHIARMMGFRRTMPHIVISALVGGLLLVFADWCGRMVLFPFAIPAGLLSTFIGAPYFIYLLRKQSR

FhuCB with FhuB E304A = molecular target: T3, FhuCB with FhuB E304A (Escherichia coli, UniProt P07821 1-265; P06972 1-660, E304A, red-tris-NTA 2nd generation dye on the His-tag)
T3 construct: FhuC, ATPase subunit, Escherichia coli; as in Dm2; FhuB, membrane subunit, Escherichia coli, 660 residues; Mutant made on the FhuCB-pET15b construct by direct mutagenesis; source: E. coli BL21(DE3) C43, purified (TALON, Superose 6 gel filtration) in LMNG; not shown: His-tag, N-terminal, kept; copies: 2 + 1
T3 sequence (looked up) 1: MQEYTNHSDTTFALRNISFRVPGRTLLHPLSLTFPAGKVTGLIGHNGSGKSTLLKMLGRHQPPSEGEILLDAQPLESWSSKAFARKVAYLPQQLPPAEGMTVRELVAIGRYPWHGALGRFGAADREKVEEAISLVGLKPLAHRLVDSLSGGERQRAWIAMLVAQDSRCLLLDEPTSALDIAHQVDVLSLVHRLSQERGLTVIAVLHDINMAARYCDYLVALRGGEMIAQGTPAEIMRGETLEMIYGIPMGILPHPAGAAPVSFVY
T3 sequence (looked up) 2: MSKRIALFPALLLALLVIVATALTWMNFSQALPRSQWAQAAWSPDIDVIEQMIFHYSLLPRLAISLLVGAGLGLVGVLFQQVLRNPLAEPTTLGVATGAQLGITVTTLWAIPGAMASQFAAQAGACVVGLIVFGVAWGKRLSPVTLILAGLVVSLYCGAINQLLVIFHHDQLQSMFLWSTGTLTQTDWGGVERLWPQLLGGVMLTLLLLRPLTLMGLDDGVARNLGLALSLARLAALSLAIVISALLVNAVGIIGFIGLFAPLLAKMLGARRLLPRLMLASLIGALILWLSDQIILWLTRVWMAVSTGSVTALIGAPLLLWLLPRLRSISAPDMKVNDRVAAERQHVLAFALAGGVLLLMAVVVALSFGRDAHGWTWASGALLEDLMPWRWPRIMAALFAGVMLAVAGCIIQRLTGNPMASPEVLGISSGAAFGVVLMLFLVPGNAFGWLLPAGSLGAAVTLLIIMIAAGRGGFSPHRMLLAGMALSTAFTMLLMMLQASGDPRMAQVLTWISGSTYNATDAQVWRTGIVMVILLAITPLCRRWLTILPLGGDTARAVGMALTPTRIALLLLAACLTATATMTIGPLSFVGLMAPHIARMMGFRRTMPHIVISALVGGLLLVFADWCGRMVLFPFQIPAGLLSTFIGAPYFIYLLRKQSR

B1: FhuD (natural protein, Escherichia coli)
chain: AAIDPNRIVALEWLPVELLLALGIVPYGVADTINYRLWVSEPPLPDSVIDVGLRTEPNLELLTEMKPSFMVWSAGYGPSPEMLARIAPGRGFNFSDGKQPLAMARKSLTEMADLLNLQSAAETHLAQYEDFIRSMKPRFVKRGARPLLLTTLIDPRHMLVFGPNSLFQEILDEYGIPNAWQGETNFWGSTAVSIDRLAAYKDVDVLCFDHDNSKDMDALMATPLWQAMPFVRAGRFQRVPAVWFYGATLSAMHFVRVLDNAIGGKA
notes: In 'FhuD-ferrichrome' the protein was loaded with the small molecule ferrichrome; also called FhuD-ferrichrome (when loaded with ferrichrome)
Kd (FhuCB with FhuB S57A): 88.4 nM | Kd (FhuCB with FhuB Q636A): 90.2 nM | Kd (FhuCB with FhuB E304A): 15.1 nM
